Laboratory results reported in patent US6103888A, “Mammalian cationic proteins having lipopolysaccharide binding and anti-coagulant activity” (priority 1999, dated 2000).

System: cysteine protease
Assay: Cysteine protease activity of purified human CAP18
Format: biochemical

B1: human CAP18: human form of CAP18, amino acid sequence SEQ ID NO:2 (protein)
chain: MKTQRDGHSLGRWSLVLLLLGLVMPLAIIAQVLSYKEAVLRAIDGINQRSSDANLYRLLDLDPRPTMDGDPDTPKPVSFTVKETVCPRTTQQSPEDCDFKKDGLVKRCMGTVTLNQARGSFDISCDKDNKRFALLGDFFRKSKEKIGKEFKRIVQRIKDFLRNLVPRTES
cysteine protease activity (in words): significant cysteine protease activity
